One block for each binder: values may come before it. Non-standard residues stand in square brackets, D forms with d. No end group written: not given here. pT = C[C@@H](OP(=O)(O)O)[C@H](N)C(=O)O
Legend:
[1] = molecular target: T1, HLA-A*02:01 (human); assay: UV-ligand exchange + anti-b2m ELISA; ++++ = peptide exchange yield >75%
T1 construct: MHC monomer first loaded with a UV-sensitive peptide, which is cleaved by UV and exchanged with the test peptide; captured on streptavidin plates; also called peptide-receptive MHC molecules
Source text: (§1) Candidate peptides for T cell based therapies according to the present invention were further tested for their MHC binding capacity (affinity). The individual peptide-MHC complexes were produced by UV-ligand exchange, where a UV-sensitive peptide is cleaved upon UV-irradiation, and exchanged with the peptide of interest as analyzed. Only peptide candidates that can effectively bind and stabilize the peptide-receptive MHC molecules prevent dissociation of the MHC complexes. To determine the yield of the exchange reaction, an ELISA was performed based on the detection of the light chain (β2m) of stabilized MHC complexes. The assay was performed as generally described in Rodenko et al. (Rodenko et al., 2006).
(§2) 96 well MAXISorp plates (NUNC) were coated over night with 2 ug/ml streptavidin in PBS at room temperature, washed 4× and blocked forth at 37° C. in 2% BSA containing blocking buffer. Refolded HLA-A*02:01/MLA-001 monomers served as standards, covering the range of 15-500 ng/ml. Peptide-MHC monomers of the UV-exchange reaction were diluted 100 fold in blocking buffer. Samples were incubated for 1 h at 37° C., washed four times, incubated with 2 ug/ml HRP conjugated anti-β2m for 1 h at 37° C., washed again and detected with TMB solution that is stopped with […]. Absorption was measured at 450 nm. Candidate peptides that show a high exchange yield (preferably higher than 50%, most preferred higher than 75%) are generally preferred for a generation and production of antibodies or fragments thereof, and/or T cell receptors or fragments thereof, as they show sufficient avidity to the MHC molecules and prevent dissociation of the MHC complexes.

[2] = molecular target: T1, HLA-A*02:01; assay: UV-ligand exchange + anti-b2m ELISA; ++ = peptide exchange yield >20%
Source text: as §1, §2

B1: GLAHFVNEI (peptide)
peptide: GLAHFVNEI
notes: gene: ZMYM2
peptide exchange yield [1]: > 75%

B2: IIDSSPTAL (peptide)
peptide: IIDSSPTAL
notes: gene: ATAD5
peptide exchange yield [2]: 20 to 50%

B3: VLKVFLENV (peptide)
peptide: VLKVFLENV
peptide exchange yield [1]: > 75%

B4: FIPDFAVAI (peptide)
peptide: FIPDFAVAI
notes: gene: COL6A3
peptide exchange yield [1]: > 75%

B6: FLDDGNQMLL (peptide)
peptide: FLDDGNQMLL
notes: gene: DYNC2H1
peptide exchange yield [1]: > 75%

B7: KLAEISLGV (peptide)
peptide: KLAEISLGV
notes: gene: DSG3
peptide exchange yield [2]: 20 to 50%

B10: VILDKYYFL (peptide)
peptide: VILDKYYFL
notes: gene: TMPRSS4
peptide exchange yield [1]: > 75%

B12: YLIGQHVTA (peptide)
peptide: YLIGQHVTA
notes: gene: FBXO21
peptide exchange yield [1]: > 75%

B13: GLYSGEVLV (peptide)
peptide: GLYSGEVLV
notes: gene: WDR34
peptide exchange yield [1]: > 75%

B15: KVFGGFQVV (peptide)
peptide: KVFGGFQVV
notes: gene: HES1
peptide exchange yield [1]: > 75%

B17: FLTPPLLSV (peptide)
peptide: FLTPPLLSV
notes: gene: AP2A1
peptide exchange yield [1]: > 75%

B18: SLVDARFQL (peptide)
peptide: SLVDARFQL
notes: gene: OSR1
peptide exchange yield [1]: > 75%

B19: WLSTSIPEA (peptide)
peptide: WLSTSIPEA
notes: gene: FASN
peptide exchange yield [1]: > 75%

Results, then the binder that gave them:

peptide exchange yield [2]: 20 to 50%
B5: LLSEDFVSV (peptide)
peptide: LLSEDFVSV
notes: gene: SPATA20

peptide exchange yield [1]: > 75%
B8: IITDLLRSV (peptide)
peptide: IITDLLRSV
notes: gene: FUBP1

peptide exchange yield [1]: > 75%
B9: SLSDVRVIV (peptide)
peptide: SLSDVRVIV
notes: gene: RALGAPA2

peptide exchange yield [1]: > 75%
B11: FLIESKLLSL (peptide)
peptide: FLIESKLLSL
notes: gene: DRC1

peptide exchange yield [1]: > 75%
B14: RLLELLQEA (peptide)
peptide: RLLELLQEA
notes: gene: PROM2

peptide exchange yield [1]: > 75%
B16: IQDPVIFYV (peptide)
peptide: IQDPVIFYV
notes: gene: GPR126

peptide exchange yield [2]: 20 to 50%
B20: LULAKLEKV (peptide)
peptide: L[pT]LAKLEKV
notes: gene: C9orf156

Reference: patent publication US20170253633A1 (IMMATICS BIOTECHNOLOGIES, published 2017)
